Changes are numbered by the printed parent chain.
T1: human IL-22 receptor (human IL-22Ra and human IL-10Rb) on cells (human, UniProt Q8N6P7 16-574; Q08334 20-325)
T1 sequence (looked up) 1: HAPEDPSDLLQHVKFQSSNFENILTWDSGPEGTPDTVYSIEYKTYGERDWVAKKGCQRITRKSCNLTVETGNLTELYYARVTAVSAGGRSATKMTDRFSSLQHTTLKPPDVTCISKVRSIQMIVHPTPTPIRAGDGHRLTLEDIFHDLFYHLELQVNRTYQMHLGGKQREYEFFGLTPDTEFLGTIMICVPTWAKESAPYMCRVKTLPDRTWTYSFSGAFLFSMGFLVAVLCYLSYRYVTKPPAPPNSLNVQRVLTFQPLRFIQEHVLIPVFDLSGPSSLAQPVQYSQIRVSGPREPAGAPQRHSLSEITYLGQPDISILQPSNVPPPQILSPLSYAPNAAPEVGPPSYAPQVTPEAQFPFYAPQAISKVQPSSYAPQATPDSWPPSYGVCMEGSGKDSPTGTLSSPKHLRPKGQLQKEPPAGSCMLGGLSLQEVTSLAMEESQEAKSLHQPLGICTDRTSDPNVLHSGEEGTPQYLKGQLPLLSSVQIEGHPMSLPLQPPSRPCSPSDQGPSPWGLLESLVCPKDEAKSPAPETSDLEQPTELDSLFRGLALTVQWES
T1 sequence (looked up) 2: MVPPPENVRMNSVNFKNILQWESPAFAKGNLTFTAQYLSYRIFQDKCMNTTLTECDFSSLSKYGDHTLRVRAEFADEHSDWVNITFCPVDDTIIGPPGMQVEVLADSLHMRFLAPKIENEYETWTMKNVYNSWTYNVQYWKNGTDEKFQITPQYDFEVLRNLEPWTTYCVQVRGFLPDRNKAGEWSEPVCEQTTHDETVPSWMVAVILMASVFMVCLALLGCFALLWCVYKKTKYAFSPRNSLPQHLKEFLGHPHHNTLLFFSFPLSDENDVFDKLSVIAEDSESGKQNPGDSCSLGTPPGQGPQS

B1: native mature human IL-22 (hIL-22) (ligand)
chain: APISSHCRLDKSNFQQPYITNRTFMLAKEASLADNNTDVRLIGEKLFHGVSMSERCYLMKQVLNFTLEEVLFPQSDRFQPYMQEVVPFLARLSNRLSTCHIEGDDLHIQRNVQKLKDTVKKLGESGEIKAIGELDLLFMSLRNACI
B2: Derivative 2 (ligand)
chain: B1 chain with A1C
modifications: C16 monoacid attached through linker γGlu-OEG-OEG-εLys-αAc to Cys 1C
B3: Comparator 1 (ligand)
chain: B1 chain with N35Q, N64Q, L106C
modifications: C18 diacid attached through linker γGlu-OEG-OEG-C2DA-Ac to Cys 106C
B4: Comparator 2 (ligand)
chain: B1 chain with N35Q, N64Q, R95C
modifications: C18 diacid attached through linker γGlu-OEG-OEG-C2DA-Ac to Cys 95C
B5: Comparator 6 (ligand)
chain: GPGCPISSHCRLDKSNFQQPYITNRTFMLAKEASLADNNTDVRLIGEKLFHGVSMSERCYLMKQVLNFTLEEVLFPQSDRFQPYMQEVVPFLARLSNRLSTCHIEGDDLHIQRNVQKLKDTVKKLGESGEIKAIGELDLLFMSLRNACI
modifications: C16 diacid attached through linker γGlu-OEG-OEG-C2DA-Ac to Cys 1C
B6: Comparator 4 (ligand)
chain: B5 chain
modifications: C18 diacid attached through linker γGlu-OEG-OEG-C2DA-Ac to Cys 1C
B7: Derivative 1 (ligand)
chain: B5 chain
modifications: C16 monoacid attached through linker γGlu-OEG-OEG-εLys-αAc to Cys 1C (position 1 of hIL-22; position 4 in the sequence listing entry)
B8: Comparator 14 (ligand)
chain: B1 chain with A1G
B9: Comparator 11 (ligand)
chain: GAPISSCCRLDKSNFQQPYITNRTFMLAKEASLADQNTDVRLIGEKLFHGVSMSERCYLMKQVLQFTLEEVLFPQSDRFQPYMQEVVPFLARLSNRLSTCHIEGDDLHIQRNVQKLKDTVKKLGESGEIKAIGELDLLFMSLRNACI
modifications: C18 diacid attached through linker γGlu-OEG-OEG-C2DA-Ac to Cys 6C
B10: Comparator 18 (ligand)
chain: B5 chain with N38Q, N67Q
B11: Comparator 9 (ligand)
chain: B5 chain with N38Q, N67Q
modifications: C18 diacid attached through linker γGlu-OEG-OEG-C2DA-Ac to Cys 1C
B12: Comparator 17 (ligand)
chain: B5 chain
B13: Comparator 13 (ligand)
chain: B5 chain with N38Q, N67Q
modifications: C16 diacid attached through linker γGlu-OEG-OEG-C2DA-Ac to Cys 1C
B14: Comparator 7 (ligand)
chain: GPGSGSGSCGSGSGSAPISSHCRLDKSNFQQPYITNRTFMLAKEASLADNNTDVRLIGEKLFHGVSMSERCYLMKQVLNFTLEEVLFPQSDRFQPYMQEVVPFLARLSNRLSTCHIEGDDLHIQRNVQKLKDTVKKLGESGEIKAIGELDLLFMSLRNACI
modifications: C16 diacid attached through linker γGlu-OEG-OEG-C2DA-Ac to Cys -7C (in the N-terminal peptide)
B15: Comparator 12 (ligand)
chain: B1 chain with A33C, N35Q, N64Q
modifications: C18 diacid attached through linker γGlu-OEG-OEG-C2DA-Ac to Cys 33C
B16: Comparator 3 (ligand)
chain: B1 chain with L106C
modifications: C18 diacid attached through linker γGlu-OEG-OEG-C2DA-Ac to Cys 106C
B17: Comparator 19 (ligand)
chain: B1 chain with R95C
modifications: C18 diacid attached through linker γGlu-OEG-OEG-C2DA-Ac to Cys 95C
B18: Comparator 5 (ligand)
chain: B14 chain
modifications: C18 diacid attached through linker γGlu-OEG-OEG-C2DA-Ac to Cys -7C (in the N-terminal peptide)

Molecular target: T1, human IL-22 receptor (human IL-22Ra and …)
Assay: cell-based or functional assay

B1 and B2 are the same in “EC50, BHK cell reporter gene assay (STAT3-induced luciferase), second laboratory” value: 0.03 nM for the first, 0.03 nM for the second.

Molecular target: T1, human IL-22 receptor (human IL-22Ra and …)
Assay: cell-based or functional assay
Remark: another data set of the same source

Going from B1 to B3, the “EC50, BHK cell reporter gene assay (STAT3-induced luciferase)” value rises from 0.07 nM to 0.23 nM (3.3-fold).

With B4 the “EC50, BHK cell reporter gene assay (STAT3-induced luciferase)” value was 0.36 nM.

Going from B3 to B4, the “Fold change EC50 compared to hIL-22, BHK cell reporter gene assay” value rises from 3 fold to 5 fold.

Molecular target: T1, human IL-22 receptor (human IL-22Ra and …)
Assay: cell-based or functional assay
Remark: another data set of the same source

Going from B5 to B6, the “In vitro EC50, BHK cell reporter gene assay (STAT3-induced luciferase)” value rises from 0.3 nM to 0.48 nM (1.6-fold).

B7 and B8 are the same in “In vitro EC50, BHK cell reporter gene assay (STAT3-induced luciferase)” value: 0.06 nM for the first, 0.06 nM for the second.

Molecular target: T1, human IL-22 receptor (human IL-22Ra and …)
Assay: cell-based or functional assay
Remark: another data set of the same source

B7 and B1 are within 1.5-fold of each other in “EC50, BHK cell reporter gene assay (STAT3-induced luciferase)” value: 0.06 nM for the first, 0.07 nM for the second.

Molecular target: T1, human IL-22 receptor (human IL-22Ra and …)
Assay: cell-based or functional assay
Remark: another data set of the same source

Compared with B5, B6 is higher in “fold reduction in potency compared to hIL-22, BHK cell reporter gene assay” value: 4 fold for the first, 7 fold for the second.

B6 was tested, and the “fold reduced potency compared to hIL-22, HepG2 cell assay for pSTAT3” value was 2.5 fold.

Molecular target: T1, human IL-22 receptor (human IL-22Ra and …)
Assay: cell-based or functional assay
Remark: another data set of the same source

First: B9
Second: B10
The “EC50, BHK cell reporter gene assay (STAT3-induced luciferase)” value of the first is 6.5-fold higher: 1.24 nM for the first, 0.19 nM for the second.

Going from B11 to B12, the “EC50, BHK cell reporter gene assay (STAT3-induced luciferase)” value falls from 0.61 nM to 0.09 nM (6.8-fold).

First: B5
Second: B6
The “EC50, BHK cell reporter gene assay (STAT3-induced luciferase)” value of the first is 1.6-fold lower: 0.3 nM for the first, 0.48 nM for the second.

Going from B13 to B14, the “EC50, BHK cell reporter gene assay (STAT3-induced luciferase)” value falls from 0.37 nM to 0.18 nM (2.1-fold).

B1 and B8 are within 1.5-fold of each other in “EC50, BHK cell reporter gene assay (STAT3-induced luciferase)” value: 0.07 nM for the first, 0.06 nM for the second.

In the case of B15, the “EC50, BHK cell reporter gene assay (STAT3-induced luciferase)” value is reported as 0.28 nM.

Molecular target: T1, human IL-22 receptor (human IL-22Ra and …)
Assay: cell-based or functional assay
Remark: another data set of the same source

Compared with B1, B16 is 3.1-fold higher in “EC50, BHK cell reporter gene assay (STAT3-induced luciferase), second laboratory” value: 0.027 nM for the first, 0.085 nM for the second.

In the case of B17, the “EC50, BHK cell reporter gene assay (STAT3-induced luciferase), second laboratory” value is reported as 0.31 nM.

Compared with B16, B17 is higher in “Fold change EC50 compared to hIL-22, BHK cell reporter gene assay, second laboratory” value: 3 fold for the first, 11 fold for the second.

Molecular target: T1, human IL-22 receptor (human IL-22Ra and …)
Assay: cell-based or functional assay
Remark: another data set of the same source

Compared with B11, B12 is lower in “EC50, HepG2 cell assay for pSTAT3 (AlphaScreen SureFire STAT3 p-Tyr705)” value (from here on “EC50 … (AlphaScreen SureFire STAT3 p-Tyr705)”): 14.9 nM for the first, 12.1 nM for the second.

Compared with B6, B18 is lower in “EC50 … (AlphaScreen SureFire STAT3 p-Tyr705)” value: 10.1 nM for the first, 6.98 nM for the second.

First: B1
Second: B8
The “EC50 … (AlphaScreen SureFire STAT3 p-Tyr705)” value of the first is lower: 3.88 nM for the first, 4.73 nM for the second.

Reference: patent US20240239855A1 (CYTOKI PHARMA, published 2024)
